Experimental data reported in patent publication US20170145379.

Tests used:
[1] = tested on: T1, 18-mer peptide PQLPYPQPQLPYPQPQPF
T1 sequence: PQLPYPQPQLPYPQPQPF

[2] = tested on: T2, 33-mer peptide LQLQPFPQPQLPYPQPQLPYPQPQLPYPQPQPF from α2-gliadin
T2 sequence: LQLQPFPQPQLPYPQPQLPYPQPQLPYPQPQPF

Substance	Km (protease activity against 18-mer peptide) [1]	Vmax (protease activity against 18-mer peptide) (mg 18-mer peptide/ml) [1]	in vitro degradation of the peptide (protease activity) [2]
elongation factor G from Streptococcus thermophilus (strain P02638 F9 = DN_001343, CNCM I-2776), purified from culture supernatant	0.794 mg 18-mer peptide/m1	1.5	The protease able to degrade in vitro the 33-mer as well as the 18-mer peptide
elongation factor Tu from Lactobacillus casei (strain P02503 A1 = DN_114001, CNCM I-1518), purified from culture supernatant	0.643 mg 18-mer peptide/ml	1.27	The protease able to degrade in vitro the 33-mer as well as the 18-mer peptide
